In assay [1] the target is T1, VEGF-A165 (Homo sapiens, UniProt P15692).
T1 construct: made in house; host or cells: 293T cells, transient transfection, 35S-labelled conditioned medium
T1 sequence (P15692 27-191 isoform P15692-4): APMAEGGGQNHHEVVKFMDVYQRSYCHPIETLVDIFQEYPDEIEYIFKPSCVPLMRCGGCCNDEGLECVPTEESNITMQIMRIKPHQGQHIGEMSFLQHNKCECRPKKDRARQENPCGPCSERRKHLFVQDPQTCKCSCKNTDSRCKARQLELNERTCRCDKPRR
The experiment in a line: Ligand binding analysis of chimeric VEGF receptor/hIgG1Fc fusions, VEGF-A165. Particulars: for binding to VEGF-A: 35S-labeled VEGF-A165 precipitated with conditioned medium of 293T cells, SDS-PAGE. The protocol: (§1) For expression analysis, the two new chimeric VEGF receptors and control constructs expressing R-1D1-3/hIgG1Fc, R-2D1-3/hIgG1Fc, R-3D1-3/hIgG1Fc, mature VEGF-C and VEGF-A165 were transiently transfected into 293T cells using JetPEI (QBioGene/MP Biomedicals, Irvine, Calif.). Metabolic labeling with ^35S-methionine and ^35S-cysteine was carried out at 48 hours post-transfection and labeling maintained for 24 hours. The serum-free conditioned medium was then immunoprecipitated using Protein A sepharose and either: a) specific antiserum against human mature VEGF-C; b) goat polyclonal antibody against human VEGF-A (R&D systems, Minneapolis, Minn.); or, c) serum-free medium of 293T cells taken 48 to 72 hours post-transient transfection with VEGF receptor/hIgG1Fc proteins (control proteins, R-1D1-3, R-2D1-3, R-3D1-3; chimeric proteins, R-3D1-R2D2+3 and R-3D1-R2D2-R1D3).
(§2) The immunoprecipitated fractions were analyzed on 17% SDS-PAGE and the dried gels were exposed for 12 hours on phosphoimager plates or 36 hours on X-ray films.
(§3) Ligand binding analysis was performed as described for the VEGF-C/VEGF-A hybrid growth factors in Example 1. Briefly, the unlabeled conditioned medium of transiently transfected 293T cells expressing the chimeric VEGFR/IgG1Fc fusion proteins was used to precipitate the ^35S metabolically labeled mature VEGF-C, full-length VEGF-C, and VEGF-A165.

Assay [2] concerns mature VEGF-C, full-length VEGF-C. The experiment in a line: Ligand binding analysis of chimeric VEGF receptor/hIgG1Fc fusions, VEGF-C. Also noted: species or system human. Particulars: 35S-labeled mature and full-length VEGF-C precipitated with conditioned medium of 293T cells, SDS-PAGE. On the procedure: as §1, §2, §3
For assay [3], the target named is T2, VEGF-C 109 (Homo sapiens, UniProt P49767).
T2 construct: fragments with 109 residues each (called VEGF-A 109 and VEGF-C 109); His6 (C); made in house; host or cells: 293T cells (labelled supernatant)
T2 sequence (P49767 with tags, fused parts or gaps): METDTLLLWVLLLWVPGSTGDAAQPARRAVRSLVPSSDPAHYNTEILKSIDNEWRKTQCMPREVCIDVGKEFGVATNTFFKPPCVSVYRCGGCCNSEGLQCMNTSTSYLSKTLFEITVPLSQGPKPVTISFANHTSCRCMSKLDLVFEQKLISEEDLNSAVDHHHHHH
Put plainly: Receptor fragment/Fc fusion ligand precipitation binding assay, VEGF-C 109. Particulars: tritiated VEGF-C 109 precipitated, analysis of PAGE gels. The source says: (§4) The binding assays utilized minimal VEGF-A (SEQ ID NOS: 106 and 107) and VEGF-C (SEQ ID NOS: 108 and 109) fragments with 109 residues each (called VEGF-A 109 and VEGF-C 109). These constructs are not naturally occurring, but are effective for binding assays. Other growth factor constructs, either natural or artificial, may also be used for performing these assays.
(§5) Either Tritiated VEGF-A 109 or VEGF-C 109 was used in a given binding experiment. Ligand in solution was precipitated by mixing […] of ligand solution with 100 μl binding mix at 4° C. overnight, with agitation. The ligand solution may be the supernatant of metabolically labeled 293T cells. The binding mixes used for the receptor binding analysis were as follows: for VEGFR-1 binding assays, the binding mix was phosphate buffered saline (PBS) containing 1.5% BSA, 0.06% Tween 20, 3 μg/ml heparin and 400 ng/ml VEGFR-1-Fc fusion protein (100 μl of this binding mix was added to 200 μl of ligand solution). For VEGFR-2 binding assays, the binding mix was 82% conditioned cell supernatant from 293T cells transiently expressing VEGFR-2-Fc fusion protein in mixture with 18% of a PBS solution that contained 5% BSA, 0.2% Tween 20, and 10 μg/ml heparin (250 μl of binding mix was added to 200 μl of ligand solution). For VEGFR-3 binding assays, the binding mix was 82% conditioned cell supernatant from 293T cells transiently expressing VEGFR-3-Fc fusion protein, 18% of PBS containing 5% BSA, 0.2% Tween 20, and 10 μg/ml heparin (250 μl of binding mix was added to 200 μl of ligand solution). To collect precipitated ligand, 50 μl of a 30% protein A sepharose (PAS, Pharmacia) slurry in PBS was added and incubated under agitation for at least 1.5 hr at 4° C. Standard buffer was added to each immunoprecipitation sample and boiled for 5 minutes at 95° C. during which the immunopreciptated proteins become dissociated from the protein A sepharose. After centrifugation, 10 μl of each sample was analyzed on 15% SDS-PAGE under reducing conditions. The gels were dried and exposed for either 12 hours on phosphorimager plates or 4 weeks on X-ray film.
(§6) Tables 3 and 4 identify constructs by name, a DNA and deduced amino acid sequence from the sequence listing, the portion of VEGFR-2 (SEQ ID NO: 4) or VEGFR-3 (SEQ ID NO: 6) amino acid sequence that was included in the constructs, whether the constructs expressed, and, if tested, whether constructs bound ligand. The table data is compiled from analysis of PAGE gels. The asterisk adjacent to the “B*” indicates a “spill-over” from the adjacent lane, as the origin of the bands seen in the “B” lane. A failure to express under the particular experimental conditions used in this instance should not be interpreted as a failure to bind. The experiments can be repeated using different receptor fragments, binding constructs, ligands, or combinations thereof.

In assay [4] the target is T3, VEGF-A 109 (Homo sapiens, UniProt P15692).
T3 construct: fragments with 109 residues each (called VEGF-A 109 and VEGF-C 109); His6 (C); made in house; host or cells: 293T cells (labelled supernatant)
T3 sequence (P15692 with tags, fused parts or gaps): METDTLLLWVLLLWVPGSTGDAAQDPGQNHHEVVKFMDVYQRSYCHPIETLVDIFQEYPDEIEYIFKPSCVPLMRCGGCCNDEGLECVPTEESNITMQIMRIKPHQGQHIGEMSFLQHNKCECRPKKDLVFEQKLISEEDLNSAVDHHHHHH
Put plainly: Receptor fragment/Fc fusion ligand precipitation binding assay, VEGF-A 109. The settings on record: VEGFR-2 Fc fusion constructs; tritiated VEGF-A 109 precipitated, analysis of PAGE gels.
Excerpt: as §4, §5, §6

Chain of mature VEGF-C, full-length VEGF-C (P49767 112-227 limits assumed): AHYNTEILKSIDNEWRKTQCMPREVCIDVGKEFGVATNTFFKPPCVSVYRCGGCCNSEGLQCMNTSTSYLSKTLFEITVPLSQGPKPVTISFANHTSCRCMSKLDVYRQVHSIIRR

With “R-3D1-R2D2-R1D3/Ig: chimeric hIgG1Fc fusion: first Ig-like domain of VEGFR-3, second of VEGFR-2, third of VEGFR-1; SEQ ID NO: 128”, in assay [1], the “binding to VEGF-A” value was “strongly bound”. For the same substance, the “binding to VEGF-C” value in assay [2] is reported as “strongly bound”.

Take “R-3 B: Fc fusion of VEGFR-3 residues 138-226 with CD33 signal peptide; SEQ ID NOS: 33 and 34”: the “Binds VEGF-C” value in assay [3] (VEGFR-3 Fc fusion constructs) is recorded as “Yes”.

With “R-2 H: Fc fusion of VEGFR-2 residues 118-220 with CD33 signal peptide; SEQ ID NOS: 21 and 22”, the “Binds VEGF-A” value in assay [4] was “No”. The “Binds VEGF-C” value in assay [3] (VEGFR-2 Fc fusion constructs) was “Yes”; in assay [3] (VEGFR-2 Fc fusion constructs, listed as R-2H), “sufficient for VEGF-C binding”.

For the substance “R-2 C: Fc fusion of VEGFR-2 residues 24-226 with CD33 signal peptide; SEQ ID NOS: 11 and 12”, in assay [4], the “Binds VEGF-A” value was “No”. In assay [3] (VEGFR-2 Fc fusion constructs), the “Binds VEGF-C” value is “No”.

As to “R-3 G: Fc fusion of VEGFR-3 residues 1-329 (D1-3); SEQ ID NOS: 43 and 44”, the “Binds VEGF-C” value in assay [3] (VEGFR-3 Fc fusion constructs) is on record as “Yes”.

Consider “R-3 H: Fc fusion of VEGFR-3 residues 1-134; SEQ ID NOS: 45 and 46”, for which the “Binds VEGF-C” value in assay [3] (VEGFR-3 Fc fusion constructs) is recorded as “No”.

For “R-3 I: Fc fusion of VEGFR-3 residues 1-39, 132-329; SEQ ID NOS: 47 and 48”, in assay [3] (VEGFR-3 Fc fusion constructs), the “Binds VEGF-C” value is given as “No”.

Consider “R-2 K: Fc fusion of VEGFR-2 residues 118-241 with CD33 signal peptide; SEQ ID NOS: 27 and 28”, for which, in assay [4], the “Binds VEGF-A” value is “No”. Besides, the “Binds VEGF-C” value in assay [3] (VEGFR-2 Fc fusion constructs) is recorded as “No”.

On to “R-2 B: Fc fusion of VEGFR-2 residues 24-220 with CD33 signal peptide; SEQ ID NOS: 9 and 10”, for which, in assay [4], the “Binds VEGF-A” value was “No”. For the same substance, in assay [3] (VEGFR-2 Fc fusion constructs), the “Binds VEGF-C” value is given as “No”.

As for “R-2 E: Fc fusion of VEGFR-2 residues 24-241 with CD33 signal peptide; SEQ ID NOS: 15 and 16”, the “Binds VEGF-A” value in assay [4] is recorded as “No”. For the same substance, the “Binds VEGF-C” value in assay [3] (VEGFR-2 Fc fusion constructs) is given as “No”.

Regarding “R-3 D: Fc fusion of VEGFR-3 residues 1-226; SEQ ID NOS: 37 and 38”, the “Binds VEGF-C” value in assay [3] (VEGFR-3 Fc fusion constructs) is “Yes”.

Turning to “R-3 K: Fc fusion of VEGFR-3 residues 1-39, 132-229; SEQ ID NOS: 51 and 52”, the “Binds VEGF-C” value in assay [3] (VEGFR-3 Fc fusion constructs) is on record as “No”.

Turning to “R-2 A: Fc fusion of VEGFR-2 (SEQ ID NO: 4) residues 24-326 with CD33 signal peptide; SEQ ID NOS: 7 and 8”, the “Binds VEGF-A” value in assay [4] is “Yes”. Also, the “Binds VEGF-C” value in assay [3] (VEGFR-2 Fc fusion constructs) is listed as “Yes”.

“R-2 F: Fc fusion of VEGFR-2 residues 24-122 with CD33 signal peptide; SEQ ID NOS: 17 and 18”: the “Binds VEGF-A” value in assay [4] is given as “No”. Moreover, the “Binds VEGF-C” value in assay [3] (VEGFR-2 Fc fusion constructs) is given as “No”.

Consider “R-2 D: Fc fusion of VEGFR-2 residues 24-232 with CD33 signal peptide; SEQ ID NOS: 13 and 14”, for which, in assay [4], the “Binds VEGF-A” value is reported as “No”. Moreover, the “Binds VEGF-C” value in assay [3] (VEGFR-2 Fc fusion constructs) is reported as “No”.

Regarding “R-2 L: Fc fusion of VEGFR-2 residues 220-326 with CD33 signal peptide; SEQ ID NOS: 29 and 30”, the “Binds VEGF-A” value in assay [4] was “No”. Moreover, the “Binds VEGF-C” value in assay [3] (VEGFR-2 Fc fusion constructs) is on record as “No”.

“R-3 J: Fc fusion of VEGFR-3 residues 1-39, 132-247; SEQ ID NOS: 49 and 50”: the “Binds VEGF-C” value in assay [3] (VEGFR-3 Fc fusion constructs) is “No”.

Take “R-3D1-R2D2+3/Ig: chimeric hIgG1Fc fusion: first Ig-like domain of VEGFR-3 and second and third Ig-like domains of VEGFR-2; SEQ ID NO: 125”: the “binding to VEGF-A” value in assay [1] is listed as “not VEGF-A”. For the same substance, the “binding to VEGF-A, second experiment” value in assay [1] (second experiment, 35S-labeled VEGF-A165, SDS-PAGE) is “only weak binding”. Moreover, the “binding to VEGF-C” value in assay [2] was “exhibited binding”.

“R-2 I: Fc fusion of VEGFR-2 residues 118-226 with CD33 signal peptide; SEQ ID NOS: 23 and 24”: in assay [4], the “Binds VEGF-A” value is “No”. In addition, the “Binds VEGF-C” value in assay [3] (VEGFR-2 Fc fusion constructs) is listed as “Weak”.

With “R-3 C: Fc fusion of VEGFR-3 residues 1-229; SEQ ID NOS: 35 and 36”, the “Binds VEGF-C” value in assay [3] (VEGFR-3 Fc fusion constructs) is on record as “Yes”.

Consider “R-2 G: Fc fusion of VEGFR-2 residues 118-326 with CD33 signal peptide; SEQ ID NOS: 19 and 20”, for which the “Binds VEGF-A” value in assay [4] was “Yes”. For the same substance, in assay [3] (VEGFR-2 Fc fusion constructs), the “Binds VEGF-C” value was “Yes”.

Consider “R-2 J: Fc fusion of VEGFR-2 residues 118-232 with CD33 signal peptide; SEQ ID NOS: 25 and 26”, for which the “Binds VEGF-A” value in assay [4] is given as “No”. Besides, the “Binds VEGF-C” value in assay [3] (VEGFR-2 Fc fusion constructs) is recorded as “Very”.
